Where a chain is given by its changes, count along the chain named. Names may count otherwise.
T1: Human Notch4-NRR domain Fc fusion protein (human, UniProt Q99466 1046-1445, limits assumed)
T1 construct: Expressed in a CHO cell line, used from culture supernatant; 1 is named; also called Human Notch4-NRR Fusion Protein; not shown: Fc
T1 sequence: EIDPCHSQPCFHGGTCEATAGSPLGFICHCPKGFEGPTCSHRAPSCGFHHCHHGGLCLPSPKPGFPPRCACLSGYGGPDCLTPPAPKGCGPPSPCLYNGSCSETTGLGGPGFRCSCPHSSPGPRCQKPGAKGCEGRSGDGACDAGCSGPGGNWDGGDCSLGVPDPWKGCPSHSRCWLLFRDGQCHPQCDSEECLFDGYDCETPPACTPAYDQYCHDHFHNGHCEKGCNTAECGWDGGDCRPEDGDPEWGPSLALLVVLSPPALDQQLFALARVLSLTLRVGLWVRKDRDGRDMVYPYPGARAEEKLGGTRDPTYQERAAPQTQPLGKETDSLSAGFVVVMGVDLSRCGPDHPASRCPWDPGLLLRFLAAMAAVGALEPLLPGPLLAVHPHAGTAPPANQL

B1: HK2L2 (antibody, human IgG2, kappa, V domains shown)
VH: EVQLVESGGGLVQPGGSLRLSCAASGFTFSSYGMSWVRQAPGKGLELVSTINSNGGRTYYPDSVKGRFTISRDNSKNTLYLQMGSLRAEDMAVYYCARDQGFAYWGQGTLVTVSS
VL: DIQMTQSPSSLSASVGDRVTITCKASQDVGTAVAWYQQKPGKVPKLLIYWASTRHTGVPSRFSGSGSGTDFTLTISSLQPEDVATYFCQQYSSYPWTFGQGTKVEIKR
notes: Humanized IgG2 (V234A, G237A)/κ; also called No. 12
B2: HK2L1 (antibody, human IgG2, kappa, V domains shown)
VH: B1 VH
VL: B1 VL with F87Y
notes: Humanized IgG2 (V234A, G237A)/κ; also called No. 11
B3: HA2L1 (antibody, human IgG2, kappa, V domains shown)
VH: B1 VH with P61A, D62N
VL: B1 VL with F87Y
notes: Humanized IgG2 (V234A, G237A)/κ; also called No. 26
B4: HA2L2 (antibody, human IgG2, kappa, V domains shown)
VH: B1 VH with P61A, D62N
VL: B1 VL
notes: Humanized IgG2 (V234A, G237A)/κ; also called No. 27
B5: HK3L1 (antibody, human IgG2, kappa, V domains shown)
VH: B1 VH with S49A, R87K
VL: B1 VL with F87Y
notes: Humanized IgG2 (V234A, G237A)/κ; also called No. 16
B6: HK3L2 (antibody, human IgG2, kappa, V domains shown)
VH: B1 VH with S49A, R87K
VL: B1 VL
notes: Humanized IgG2 (V234A, G237A)/κ; also called No. 17
B7: HA2L4(Lys-) (antibody, human IgG2, kappa)
heavy: EVQLVESGGGLVQPGGSLRLSCAASGFTFSSYGMSWVRQAPGKGLELVSTINSNGGRTYYANSVKGRFTISRDNSKNTLYLQMGSLRAEDMAVYYCARDQGFAYWGQGTLVTVSSASTKGPSVFPLAPCSRSTSESTAALGCLVKDYFPEPVTVSWNSGALTSGVHTFPAVLQSSGLYSLSSVVTVPSSNFGTQTYTCNVDHKPSNTKVDKTVERKCCVECPPCPAPPAAAPSVFLFPPKPKDTLMISRTPEVTCVVVDVSHEDPEVQFNWYVDGVEVHNAKTKPREEQFNSTFRVVSVLTVVHQDWLNGKEYKCKVSNKGLPAPIEKTISKTKGQPREPQVYTLPPSREEMTKNQVSLTCLVKGFYPSDIAVEWESNGQPENNYKTTPPMLDSDGSFFLYSKLTVDKSRWQQGNVFSCSVMHEALHNHYTQKSLSLSPG
light: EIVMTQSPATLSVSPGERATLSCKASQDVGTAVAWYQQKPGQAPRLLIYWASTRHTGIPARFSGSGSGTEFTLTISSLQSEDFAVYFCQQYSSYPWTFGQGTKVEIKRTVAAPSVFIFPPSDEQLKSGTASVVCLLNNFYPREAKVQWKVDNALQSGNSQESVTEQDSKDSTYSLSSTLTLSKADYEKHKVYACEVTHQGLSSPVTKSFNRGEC
notes: Humanized IgG2 (V234A, G237A)/κ; also called No. 32
B8: HK2L5(Lys-) (antibody, human IgG2, kappa)
heavy: B7 heavy with A61P, N62D
light: DIQMTQSPSSLSASVGDRVTITCKASQDVGTAVAWYQQKPGKSPKLLIYWASTRHTGVPSRFSGSGSGTDFTLTISSLQPEDVATYFCQQYSSYPWTFGQGTKVEIKRTVAAPSVFIFPPSDEQLKSGTASVVCLLNNFYPREAKVQWKVDNALQSGNSQESVTEQDSKDSTYSLSSTLTLSKADYEKHKVYACEVTHQGLSSPVTKSFNRGEC
notes: Humanized IgG2 (V234A, G237A)/κ; also called No. 36
B9: HA2L5(Lys-) (antibody, human IgG2, kappa)
heavy: B7 heavy
light: B8 light
notes: Humanized IgG2 (V234A, G237A)/κ; also called No. 33
B10: HA2L6(Lys-) (antibody, human IgG2, kappa, V domains shown)
VH: B1 VH with P61A, D62N
VL: EIVMTQSPATLSVSPGERATLSCKASQDVGTAVAWYQQKPGQSPRLLIYWASTRHTGIPARFSGSGSGTEFTLTISSLQSEDFAVYFCQQYSSYPWTFGQGTKVEIKR
notes: Humanized IgG2 (V234A, G237A)/κ; also called No. 40
B11: HK3L6(Lys-) (antibody, human IgG2, kappa, V domains shown)
VH: B1 VH with S49A, R87K
VL: B10 VL
notes: Humanized IgG2 (V234A, G237A)/κ; also called No. 42
B12: HK1L5 (antibody, human IgG2, kappa, V domains shown)
VH: B1 VH with L47Y
VL: B1 VL with V43S
notes: Humanized IgG2 (V234A, G237A)/κ; also called No. 10
B13: HA1L3 (antibody, human IgG2, kappa, V domains shown)
VH: B1 VH with L47Y, P61A, D62N
VL: B10 VL with S43A, F87Y
notes: Humanized IgG2 (V234A, G237A)/κ; also called No. 23
B14: HA1L1 (antibody, human IgG2, kappa, V domains shown)
VH: B1 VH with L47Y, P61A, D62N
VL: B1 VL with F87Y
notes: Humanized IgG2 (V234A, G237A)/κ; also called No. 21
B15: HA1L4 (antibody, human IgG2, kappa, V domains shown)
VH: B1 VH with L47Y, P61A, D62N
VL: B10 VL with S43A
notes: Humanized IgG2 (V234A, G237A)/κ; also called No. 24
B16: HA1L2 (antibody, human IgG2, kappa, V domains shown)
VH: B1 VH with L47Y, P61A, D62N
VL: B1 VL
notes: Humanized IgG2 (V234A, G237A)/κ; also called No. 22
B17: HA1L5 (antibody, human IgG2, kappa, V domains shown)
VH: B1 VH with L47Y, P61A, D62N
VL: B1 VL with V43S
notes: Humanized IgG2 (V234A, G237A)/κ; also called No. 25
B18: HK1L4 (antibody, human IgG2, kappa, V domains shown)
VH: B1 VH with L47Y
VL: B10 VL with S43A
notes: Humanized IgG2 (V234A, G237A)/κ; also called No. 9

The binders below were run against T1, Human Notch4-NRR domain Fc fusion … (assay: SPR (Biacore) as for Table 30; Notch4-NRR-Fc captured, antibody injected; averaged, N=4).
Experimental: (§1) Kinetic analysis of further anti-Notch4 inhibitory humanized antibodies was carried out as follows. Human Notch4-NRR domain Fc fusion proteins were expressed with a CHO cell line. The antigen in the culture supernatant was captured by the anti-human Notch4 antibody fixed on a CM5 sensor chip that recognizes different epitopes of human Notch4. The humanized anti-human Notch4 antibody was then injected onto the sensor chip at various concentrations. The interaction and disassociation constants thereof were calculated according to manufacturer's instructions.
B1 showed a Kd of 1.38 nM, a koff of 0.00157 s⁻¹ and a kon of 1.23e+06 M⁻¹ s⁻¹.
B2 showed a Kd of 1.84 nM, a koff of 0.0016 s⁻¹ and a kon of 875000 M⁻¹ s⁻¹.
B3 showed a Kd of 1.76 nM, a koff of 0.00166 s⁻¹ and a kon of 949000 M⁻¹ s⁻¹.
With B4 the Kd was 1.41 nM, the koff was 0.00222 s⁻¹ and the kon was 1.63e+06 M⁻¹ s⁻¹.
B5 showed a Kd of 1.76 nM, a koff of 0.00133 s⁻¹ and a kon of 783000 M⁻¹ s⁻¹.
B6 showed a Kd of 1.29 nM, a koff of 0.00145 s⁻¹ and a kon of 1.13e+06 M⁻¹ s⁻¹.

These binders were tested against T1, Human Notch4-NRR domain Fc fusion … (assay: SPR (Biacore) as for Table 30; Notch4-NRR-Fc captured, antibody injected; averaged, N=5).
Experimental: as §1
B7 gave a Kd of 0.83 nM, a koff of 0.00162 s⁻¹ and a kon of 2.43e+06 M⁻¹ s⁻¹.
B8 showed a Kd of 0.617 nM, a koff of 0.00113 s⁻¹ and a kon of 1.93e+06 M⁻¹ s⁻¹.

Each binder was assayed against T1, Human Notch4-NRR domain Fc fusion … (assay: SPR (Biacore) as for Table 30; Notch4-NRR-Fc captured, antibody injected; averaged, N=3).
Experimental: as §1
In the case of B9, the Kd is reported as 0.776 nM, the koff is reported as 0.0015 s⁻¹ and the kon is reported as 2.01e+06 M⁻¹ s⁻¹.
B10 gave a Kd of 0.838 nM, a koff of 0.00151 s⁻¹ and a kon of 1.83e+06 M⁻¹ s⁻¹.
Work on B11 yielded a Kd of 0.766 nM, a koff of 0.00114 s⁻¹ and a kon of 1.51e+06 M⁻¹ s⁻¹.
B12 showed a Kd of 1.78 nM, a koff of 0.00489 s⁻¹ and a kon of 2.72e+06 M⁻¹ s⁻¹.

Each binder was assayed against T1, Human Notch4-NRR domain Fc fusion … (assay: SPR (Biacore) as for Table 30; Notch4-NRR-Fc captured, antibody injected; averaged, N=1).
Experimental: as §1
For B13, the Kd was 14.7 nM, the koff was 0.524 s⁻¹ and the kon was 3.57e+07 M⁻¹ s⁻¹.
B14 showed a Kd of 453 nM, a koff of 0.0279 s⁻¹ and a kon of 61500 M⁻¹ s⁻¹.
B15 was tested, and the Kd was 9.54 nM, the koff was 0.113 s⁻¹ and the kon was 1.18e+07 M⁻¹ s⁻¹.

What follows are binders tested against T1, Human Notch4-NRR domain Fc fusion … (assay: SPR (Biacore) as for Table 30; Notch4-NRR-Fc captured, antibody injected; averaged, N=2).
Experimental: as §1
In the case of B16, the Kd is reported as 18.6 nM, the koff is reported as 0.0122 s⁻¹ and the kon is reported as 649000 M⁻¹ s⁻¹.
Work on B17 yielded a Kd of 7.2 nM, a koff of 0.0452 s⁻¹ and a kon of 6.36e+06 M⁻¹ s⁻¹.
B18 gave a Kd of 4.34 nM, a koff of 0.0118 s⁻¹ and a kon of 2.78e+06 M⁻¹ s⁻¹.
